The chains are these.
T1: PUF4 RNA-binding domain (Saccharomyces cerevisiae, UniProt P25339 537-888)
T1 sequence: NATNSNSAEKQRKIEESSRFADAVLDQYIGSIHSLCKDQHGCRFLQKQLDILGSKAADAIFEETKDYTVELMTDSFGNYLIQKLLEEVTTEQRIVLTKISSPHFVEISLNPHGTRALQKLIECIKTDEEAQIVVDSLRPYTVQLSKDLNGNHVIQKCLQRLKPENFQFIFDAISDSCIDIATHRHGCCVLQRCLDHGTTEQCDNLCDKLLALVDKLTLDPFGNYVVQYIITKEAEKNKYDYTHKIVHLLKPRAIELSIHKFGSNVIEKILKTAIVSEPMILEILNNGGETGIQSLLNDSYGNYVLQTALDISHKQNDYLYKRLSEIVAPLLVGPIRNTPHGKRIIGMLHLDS

B1: Ia_S1_P3E.1_K3.1_C3.1_H3.1_[T3C]_A3.1_F3.1_T3.1 (ssRNA)
RNA: UCUCUUUGCAUAUAUCUCUU
B2: Ib_S4_P4E.1_K4.1_C4.1_H4.1_A4.1_F4.1_[T8G]_[A9C]_T4.1 (ssRNA)
RNA: UUUGACAACUGAUCGUUCUUUCUUGUAUAUGCUUCUUUCUCGAUCAGUUGUCUUU
B3: Ib_S4_P4E.1_K4.1_C4.1_H4.1_[T1G]_A4.1_F4.1_[T8C]_T4.1 (ssRNA)
RNA: B2 RNA with U24G, G31C, C32A
B4: Ib_S4_P4E.1_K4.1_C4.1_H4.1_[T1A]_A4.1_F4.1_[A9G]_T4.1 (ssRNA)
RNA: B2 RNA with U24A, G31U, C32G
B5: Ib_S4_P4E.1_K4.1_C4.1_H4.1_[T1C]_A4.1_F4.1_[T8C]_T4.1 (ssRNA)
RNA: B2 RNA with U24C, G31C, C32A
B6: Ib_S4_P4E.1_K4.1_C4.1_H4.1_A4.1_F4.1_[T8A]_[A9G]_T4.1 (ssRNA)
RNA: B2 RNA with G31A, C32G
B7: Ib_S4_P4E.1_K4.1_C4.1_H4.1_[A4G]_A4.1_F4.1_[T8A]_T4.1 (ssRNA)
RNA: B2 RNA with A27G, G31A, C32A
B8: Ib_S4_P4E.1_K4.1_C4.1_H4.1_[T1A]_A4.1_F4.1_[T8A]_T4.1 (ssRNA)
RNA: B2 RNA with U24A, G31A, C32A
B9: Ib_S4_P4E.1_K4.1_C4.1_H4.1_[T1C]_A4.1_F4.1_[A9C]_T4.1 (ssRNA)
RNA: B2 RNA with U24C, G31U
B10: Ib_S4_P4E.1_K4.1_C4.1_H4.1_A4.1_F4.1_[T8C]_[A9G]_T4.1 (ssRNA)
RNA: B2 RNA with G31C, C32G
B11: Ib_S4_P4E.1_K4.1_C4.1_H4.1_[G2C]_A4.1_F4.1_[T8C]_T4.1 (ssRNA)
RNA: B2 RNA with G25C, G31C, C32A
B12: Ic_S4_P4E.1_K4.1_C4.1_H4.1_A4.1_F4.1_[T8A]_[A9C]_T4.1 (ssRNA)
RNA: B2 RNA with G31A
B13: Ib_S4_P4E.1_K4.1_C4.1_H4.1_[G2A]_A4.1_F4.1_[A9G]_T4.1 (ssRNA)
RNA: B2 RNA with G25A, G31U, C32G
B14: Ib_S4_P4E.1_K4.1_C4.1_H4.1_[A4C]_A4.1_F4.1_[T8A]_T4.1 (ssRNA)
RNA: B2 RNA with A27C, G31A, C32A
B15: Ib_S4_P4E.1_K4.1_C4.1_H4.1_[T1G]_A4.1_F4.1_[T8A]_T4.1 (ssRNA)
RNA: B2 RNA with U24G, G31A, C32A
B16: Ib_S4_P4E.1_K4.1_C4.1_H4.1_[T1G]_A4.1_F4.1_[A9G]_T4.1 (ssRNA)
RNA: B2 RNA with U24G, G31U, C32G
B17: Ib_S4_P4E.1_K4.1_C4.1_H4.1_[A4G]_A4.1_F4.1_[T8C]_T4.1 (ssRNA)
RNA: B2 RNA with A27G, G31C, C32A
B18: Ib_S4_P3E.1_K3.1_C3.1_H3.1_[T1A]_A3.1_[T5A]_F3.1_T3.1 (ssRNA)
RNA: UUUGACAACUGAUCGUUCUUUCUAGUAAAUAUUCUUUCUCGAUCAGUUGUCUUU
B19: Ib_S4_P3E.1_K3.1_C3.1_H3.1_[A4G]_A3.1_[A6T]_F3.1_T3.1 (ssRNA)
RNA: B18 RNA with A24U, A27G, A28U, A29U
B20: Ib_S4_P3E.1_K3.1_C3.1_H3.1_[A4C]_A3.1_[A6G]_F3.1_T3.1 (ssRNA)
RNA: B18 RNA with A24U, A27C, A28U, A29G
B21: Ib_S4_P3E.1_K3.1_C3.1_H3.1_[T1A]_A3.1_[A6C]_F3.1_T3.1 (ssRNA)
RNA: B18 RNA with A28U, A29C
B22: Ib_S4_P3E.1_K3.1_C3.1_H3.1_[G2A]_A3.1_[T5C]_F3.1_T3.1 (ssRNA)
RNA: B18 RNA with A24U, G25A, A28C
B23: Ib_S4_P3E.1_K3.1_C3.1_H3.1_[T1A]_A3.1_[A6G]_F3.1_T3.1 (ssRNA)
RNA: B18 RNA with A28U, A29G
B24: Ib_S4_P3E.1_K3.1_C3.1_H3.1_[G2A]_A3.1_[A6T]_F3.1_T3.1 (ssRNA)
RNA: B18 RNA with A24U, G25A, A28U, A29U
B25: Ib_S4_P3E.1_K3.1_C3.1_H3.1_[T1G]_A3.1_[A6G]_F3.1_T3.1 (ssRNA)
RNA: B18 RNA with A24G, A28U, A29G
B26: Ic_S4_P3E.1_K3.1_C3.1_H3.1_A3.1_[T5C]_[A6T]_F3.1_T3.1 (ssRNA)
RNA: B18 RNA with A24U, A28C, A29U
B27: Ib_S4_P3E.1_K3.1_C3.1_H3.1_[G2A]_A3.1_[A6G]_F3.1_T3.1 (ssRNA)
RNA: B18 RNA with A24U, G25A, A28U, A29G
B28: Ib_S4_P3E.1_K3.1_C3.1_H3.1_[T1G]_A3.1_[A6C]_F3.1_T3.1 (ssRNA)
RNA: B18 RNA with A24G, A28U, A29C
B29: Ib_S4_P3E.1_K3.1_C3.1_H3.1_[T1C]_A3.1_[A6T]_F3.1_T3.1 (ssRNA)
RNA: B18 RNA with A24C, A28U, A29U
B30: Ib_S4_P3E.1_K3.1_C3.1_H3.1_[A4C]_A3.1_[T5A]_F3.1_T3.1 (ssRNA)
RNA: B18 RNA with A24U, A27C
B31: Ib_S4_P3E.1_K3.1_C3.1_H3.1_[T1A]_A3.1_[A6T]_F3.1_T3.1 (ssRNA)
RNA: B18 RNA with A28U, A29U
B32: Ib_S4_P3E.1_K3.1_C3.1_H3.1_[A4C]_A3.1_[T5C]_F3.1_T3.1 (ssRNA)
RNA: B18 RNA with A24U, A27C, A28C
B33: Ia_S4_P3E.1_K3.1_C3.1_H3.1_A3.1_F3.1_[T7A]_T3.1 (ssRNA)
RNA: B18 RNA with A24U, A28U, U30A
B34: Ib_S4_P3E.1_K3.1_C3.1_H3.1_[A4C]_A3.1_[A6C]_F3.1_T3.1 (ssRNA)
RNA: B18 RNA with A24U, A27C, A28U, A29C
B35: Ib_S4_P3E.1_K3.1_C3.1_H3.1_[A4C]_A3.1_[A6T]_F3.1_T3.1 (ssRNA)
RNA: B18 RNA with A24U, A27C, A28U, A29U
B36: Ib_S4_P3E.1_K3.1_C3.1_H3.1_[G2A]_A3.1_[T5A]_F3.1_T3.1 (ssRNA)
RNA: B18 RNA with A24U, G25A
B37: Ib_S4_P3E.1_K3.1_C3.1_H3.1_[A4G]_A3.1_[T5C]_F3.1_T3.1 (ssRNA)
RNA: B18 RNA with A24U, A27G, A28C
B38: Ib_S4_P3E.1_K3.1_C3.1_H3.1_A3.1_[T5C]_[A6C]_F3.1_T3.1 (ssRNA)
RNA: B18 RNA with A24U, A28C, A29C
B39: Ib_S4_P3E.1_K3.1_C3.1_H3.1_[A4G]_A3.1_[A6C]_F3.1_T3.1 (ssRNA)
RNA: B18 RNA with A24U, A27G, A28U, A29C
B40: Ia_S4_P3E.1_K3.1_C3.1_H3.1_A3.1_F3.1_[A8C]_T3.1 (ssRNA)
RNA: B18 RNA with A24U, A28U, A31C
B41: Ib_S4_P3E.1_K3.1_C3.1_H3.1_[G2T]_A3.1_[A6T]_F3.1_T3.1 (ssRNA)
RNA: B18 RNA with A24U, G25U, A28U, A29U
B42: Ia_S4_P3E.1_K3.1_C3.1_H3.1_A3.1_F3.1_[A8G]_T3.1 (ssRNA)
RNA: B18 RNA with A24U, A28U, A31G

Positions count from the first letter of the chain named. Names may count otherwise.

The target of this data set is T1, PUF4 RNA-binding domain. Nature of the data set: Mg; RNA-MaP; 20 mM Na-HEPES pH 7.4, 30 mM KOAc, 0.75 mM MgCl2, 0.1% Tween-20, 5% glycerol, 0.1 mg/mL BSA, 2 mM DTT; 25 C; 0.0125-409.6 nM protein. The conditions noted are these: tags: N-His6-TEV cleaved; C-SNAP kept, Cy3B-labelled; label: tethered on chip by stalled RNA polymerase.
As for B1, the dissociation constant Kd (usually the concentration at which binding is half-saturated) is > 2.3 µM.
As for B2, the figure is 0.0206 µM; as for B3, > 2.3 µM.
As for B4, the figure is 2.23 µM.
As for B5, the figure is 0.652 µM; as for B6, 0.00997 µM.
Molecule B7 showed a Kd of 0.00619 µM.
Under B8 stands 1.68 µM.
The molecule B9 returned a Kd of 1.02 µM.
In turn, B10 returned a dissociation constant (Kd) of 0.0171 µM.
For B11, the affinity, expressed as Kd, was 0.666 µM.
B12 registered a Kd of 0.0063 µM.
Turning to B13, the equilibrium dissociation constant (Kd) was found to be 0.329 µM.
The molecule B14 returned a Kd of 0.458 µM.
Under B15 stands 1.41 µM.
Molecule B16 displayed a dissociation constant Kd of 1.71 µM.
With B17, the dissociation constant (Kd) turned out to be 0.0244 µM.
As for B18, the figure is > 2.3 µM.
As for B19, the figure is 0.0923 µM; as for B20, 0.0405 µM.
As for B21, the figure is > 2.3 µM; as for B22, 0.383 µM.
B23 showed a Kd of 0.225 µM.
As to B24, the dissociation constant (Kd) was found to be 1.9 µM.
As for B25, the figure is 0.198 µM; as for B26, 0.0168 µM; as for B27, 0.0722 µM.
On to B28, for which the Kd was > 2.3 µM.
Under B29 stands > 2.3 µM; under B30, 1.45 µM.
Under B31 stands > 2.3 µM.
As for B32, the figure is 0.443 µM; as for B33, 0.0545 µM.
Molecule B34 registered a Kd of 1.37 µM.
Regarding B35, binding was characterised by a dissociation constant (Kd) of 1.14 µM.
As for B36, the figure is 2.08 µM.
The molecule B37 gave a dissociation constant (Kd) of 0.0224 µM.
Under B38 stands 0.0148 µM; under B39, 0.117 µM; under B40, 0.0123 µM.
Consider B41, for which the equilibrium dissociation constant (Kd) was > 2.3 µM.
For the molecule B42, binding was put at a Kd of 0.00832 µM.

(Values after article PMC9352680, “A comprehensive thermodynamic model for RNA binding by the Saccharomyces cerevisiae Pumilio protein PUF4”.)
